From US20040192898A1
Several values for one entry are separate records, joined by “and”; a condition that tells them apart may be missing. Identical values can stand only once.

Assays:
Amyloid-beta 1-40 = Amyloid-beta 1-40 (UniProt P05067); assay: SPR, BIAcore 2000; antibody captured, Aβ flowed over
Amyloid-beta 1-42 = Amyloid-beta 1-42 (UniProt P05067); assay: as above
[1] = target: β-amyloid peptide (1-42) conjugated to BSA (bovine) (UniProt P05067); assay: competition ELISA as in Example 7, against biotinylated Mu266; N=1
[2] = target: β-amyloid peptide (1-42) conjugated to BSA (bovine) (UniProt P05067); assay: competition ELISA as in Example 7, against biotinylated Mu266; mean, N=3
[3] = target: β-amyloid peptide (1-42) conjugated to BSA (bovine) (UniProt P05067); assay: competition ELISA, BSA-β-amyloid peptide coated, against biotinylated Mu266 (0.6 µg/ml); Exp. I, N56S series
[4] = target: β-amyloid peptide (1-42) conjugated to BSA (bovine) (UniProt P05067); assay: competition ELISA, BSA-β-amyloid peptide coated, against biotinylated Mu266 (0.6 µg/ml); Exp. I, N56T series
[5] = target: β-amyloid peptide (1-42) conjugated to BSA (bovine) (UniProt P05067); assay: competition ELISA, BSA-β-amyloid peptide coated, against biotinylated Mu266 (0.6 µg/ml); Exp. II, N56S series
[6] = target: β-amyloid peptide (1-42) conjugated to BSA (bovine) (UniProt P05067); assay: competition ELISA, BSA-β-amyloid peptide coated, against biotinylated Mu266 (0.6 µg/ml); Exp. II, N56T series
[7] = target: β-amyloid peptide (1-42) conjugated to BSA (bovine) (UniProt P05067); assay: competition ELISA, BSA-β-amyloid peptide coated, against biotinylated Mu266 (0.6 µg/ml); Exp. III, N56S series
[8] = target: β-amyloid peptide (1-42) conjugated to BSA (bovine) (UniProt P05067); assay: competition ELISA, BSA-β-amyloid peptide coated, against biotinylated Mu266 (0.6 µg/ml); Exp. III, N56T series
[9] = target: β-amyloid peptide (1-42) conjugated to BSA (bovine) (UniProt P05067); assay: competition ELISA, Aβ1-42-BSA coated, against biotinylated Mu266 (0.3 µg/ml); mean of three experiments, first set
[10] = target: β-amyloid peptide (1-42) conjugated to BSA (bovine) (UniProt P05067); assay: competition ELISA, Aβ1-42-BSA coated, against biotinylated Mu266 (0.3 µg/ml); mean of three experiments, second set
[11] = target: β-amyloid peptide (1-42) conjugated to BSA (bovine) (UniProt P05067); assay: competition ELISA, BSA-β-amyloid peptide coated, against biotinylated Mu266 (0.6 µg/ml); average of three, N56S series
[12] = target: β-amyloid peptide (1-42) conjugated to BSA (bovine) (UniProt P05067); assay: competition ELISA, BSA-β-amyloid peptide coated, against biotinylated Mu266 (0.6 µg/ml); average of three, N56T series

Mouse monoclonal antibody 266
Kd (Amyloid-beta 1-40): 4 pM | Kd (Amyloid-beta 1-42): 4 pM | IC50 [1]: 3.8 µg/mL and 7.1 µg/mL | IC50 [2]: 7.6 µg/mL and 14 µg/mL | IC50 [3]: 3.8 µg/mL | IC50 [4]: 4.3 µg/mL | IC50 [5]: 4.5 µg/mL | IC50 [6]: 6.4 µg/mL | IC50 [7]: 6.1 µg/mL | IC50 [8]: 6.4 µg/mL | IC50 [9]: 4.7 µg/mL | IC50 [10]: 3.87 µg/mL | IC50 [11]: 4.8 µg/mL | IC50 [12]: 5.7 µg/mL
